Reference: paper PMC7385938 (Cell Stress & Chaperones, 2020)

B1: HSPA1-N (N-terminal end domain of HSPA1) (domain or fragment)
chain: not shown
B2: HSPA5-FL (full-length human HSPA5 without the leading signal peptide for ER translocation) (natural protein)
chain: not shown
B3: HSPA5-N (N-terminal end domain of HSPA5) (domain or fragment)
chain: not shown

Molecular target: the molecule itself
Assay: non-reducing LDS-PAGE of proteoliposomes

Protein | binding result | stoichiometry N
B1 | binds | 
B2 | binds | 
B3 |  | 2
